According to patent publication US20250154283A1 (published 2025):

T1: biotinylated cynomolgus monkey VWF cysteine knot (CK) domain construct (cynomolgus monkey, biotinylated in vitro (BirA) on the biotinylation tag; one N-glycan)
T1 construct: Expressed in HEK293 EBNA cells; disulfide-linked homodimer; also called cyno VWF CK; cyno VWF CK domain; not shown: in vitro biotinylation tag, HRV-3C site and 3 VWF residues before the CK domain
T1 chain: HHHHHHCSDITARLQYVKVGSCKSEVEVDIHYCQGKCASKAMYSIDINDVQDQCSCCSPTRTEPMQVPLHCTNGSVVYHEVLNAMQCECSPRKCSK

B1: Lib1_P1_A9_scFv (scFv)
scFv: QVQLVQSGAEVKKPGASVKVSCKVSGDTLSSYGIHWVRQAPGKGLEWMGGSIPSFGTAIYAQKFQGRVTMTEDTSTDTAYMELSSLKSEDTAVYYCTSEGPWLPFFSFDYWGQGTLVTVSSSGGSTITSYNVYYTKLSSSGTDIQMTQSPSSVSASVGDRVTITCRASQGISRNLAWYQQKPGKAPKLLIYKASSLASGVPSRFSGSGSGTDFTLTISSLQPEDFANYYCQQSFSTPVTFGGGTKVEIK
notes: VH-linker-VL; not shown: C-terminal 3xFLAG and SV5 tags
B2: 1675_Lib1_scFv (scFv)
scFv: QVQLVQSGAEVKKPGASVKVSCKVSGVTLTSSAISWVRQAPGKGLEWMGGITPIFGTPIYAQKFQGRVTMTEDTSTDTAYMELSSLKSEDTAVYYCATDYGYPFWAFDIWGQGTMVTVSSSGGSTITSYNVYYTKLSSSGTDIQMTQSPSSVSASVGDRVTITCRASQGIYSALAWYQQKPGKAPKLLIYESSKRPSGVPSRFSGSGSGTDFTLTISSLQPEDFANYYCEQYASSPPTFGGGTKVEIK
notes: as for B1
B3: Lib1_P1_G3_scFv (scFv)
scFv: QVQLVQSGAEVKKPGASVKVSCKVSGYTSRQYIHWVRQAPGKGLEWMGWVTPIFGTTNYAQKFQGRVTMTEDTSTDTAYMELSSLKSEDTAVYYCAREWTGTTAFDIWGQGTLVTVSSSGGSTITSYNVYYTKLSSSGTDIQMTQSPSSVSASVGDRVTITCRASQDIGHYLAWYQQKPGKAPKLLIYAASNRASGVPSRFSGSGSGTDFTLTISSLQPEDFANYYCQQGYSAPYGFGGGTKVEIK
notes: as for B1
B4: 76_Lib4_scFv (scFv)
scFv: QVQLQESGPGLVKPSQTLSLTCTVSGVSISNHYWSWIRQPPGKGLEWIGYIDESGSTDYNPSLKSRVTMSVDTSKNQFSLKVNSVTAADTAVYYCARVSWGYYAMDVWGQGTTVTVSSSGGSTITSYNVYYTKLSSSGTEIVMTQSPATLSLSPGERATLSCRASQGVSGHLAWYQQKPGQAPRLLIYETSKRATGIPARFSGSGSGTDFTLTISSLEPEDFAVYYCQQYNDYPLGFGGGTKVEIK
notes: as for B1
B5: 4761_Lib8_scFv (scFv)
scFv: EVQLVESGGGLVQPGRSLRLSCAASGFTFSSDTMHWVRQAPGKGLEWVSAISSSGDHTDYADSVEGRFTISRDNAKNSLYLQMNSLRAEDTAVYYCAREGLRGYYFDYWGQGTLVTVSSSGGSTITSYNVYYTKLSSSGTDIQMTQSPSSLSASVGDRVTITCRASQGISGHLAWYQQKPGKAPKLLIYAASALQSGVPSRFSGSGSGTDFTLTISSLQPEDVATYYCQQSHSLPWTFGGGTKVEIK
notes: as for B1
B6: 9312_Lib8_scFv (scFv)
scFv: EVQLVESGGGLVQPGRSLRLSCAASGFSLSTYDMHWVRQAPGKGLEWVSAISSSGDTRDYADSVEGRFTISRDNAKNSLYLQMNSLRAEDTAVYYCARAFWGGDAFDIWGQGTMVTVSSSGGSTITSYNVYYTKLSSSGTDIQMTQSPSSLSASVGDRVTITCRASQTIGYWLAWYQQKPGKAPKLLIYGASTLEGGVPSRFSGSGSGTDFTLTISSLQPEDVATYYCQHSYSAPPTFGGGTKVEIK
notes: as for B1
B7: 4675_Lib4_scFv (scFv)
scFv: QVQLQESGPGLVKPSQTLSLTCTVSGFSLTSHPEGVNWIRQPPGKGLEWIGYIAHSGTTDYNPSLKSRVTMSVDTSKNQFSLKVNSVTAADTAVYYCARAYGDSDAFDIWGQGTMVTVSSSGGSTITSYNVYYTKLSSSGTEIVMTQSPATLSLSPGERATLSCRASQSIGRNLAWYQQKPGQAPRLLIYGASKRVTGIPARFSGSGSGTDFTLTISSLEPEDFAVYYCQQYSTWPTFGGGTKVEIK
notes: as for B1
B8: Lib6_P3_A4_scFv (scFv)
scFv: QVQLVQSGAEVKKPGASVKVSCKVSGDTLSNYAIHWVRQAPGKGLEWMGGINPNAGTTIYAQKFQGRVTMTEDTSTDTAYMELSSLKSEDTAVYYCARDSSSWCPVGYYYYYMDVWGKGTTVTVSSSGGSTITSYNVYYTKLSSSGTDIQMTQSPSSVSASVGDRVTITCRASQSIGDFLAWYQQKPGKAPKLLIYDASHLQTGVPSRFSGSGSGTDFTLTISSLQPEDFANYYCQQTSTIPPTFGGGTKVEIK
notes: as for B1
B9: Lib1_P1_A5_scFv (scFv)
scFv: B8 scFv
notes: as for B1
B10: Lib4_P2_D1_scFv (scFv)
scFv: B8 scFv
notes: as for B1
B11: 69_Lib8_scFv (scFv)
scFv: EVQLVESGGGLVQPGRSLRLSCAASAFTFSNYDMHWVRQAPGKGLEWVSAISGSGDTSDYADSVEGRFTISRDNAKNSLYLQMNSLRAEDTAVYYCVRASWYGTFFDYWGQGTLVTVSSSGGSTITSYNVYYTKLSSSGTDIQMTQSPSSLSASVGDRVTITCRASQSVSGWLAWYQQKPGKAPKLLIYGTSTLQSGVPSRFSGSGSGTDFTLTISSLQPEDVATYYCQQSYSAPYTFGGGTKVEIK
notes: as for B1
B12: 17561_Lib6_scFv (scFv)
scFv: EVQLVQSGAEVKKPGASVKVSCKASGYTFTDLPISWVRQAPGQGLEWMGWINPYTGDTNYAQKLQGRGTMTTDPSTSTAYMELRSLRSDDTAVYYCARDGVILGYYYYYGMDVWGQGTTVTVSSSGGSTITSYNVYYTKLSSSGTESALTQPASVSGSPGQSITISCTGTDLGSKSVSWYQQHPGKAPKLMIYDNFNRPSGVSNRFSGSKSGNTASLTISGLQAEDEADYYCSSRTVSGTYVFGGGTKLTVL
notes: as for B1
B13: Lib1_P1_F10_scFv (scFv)
scFv: QVQLVQSGAEVKKPGASVKVSCKVSGYTFSSSGIHWVRQAPGKGLEWMGGIFPNFGTAIYAQKFQGRVTMTEDTSTDTAYMELSSLKSEDTAVYYCARESDFWSGSFTNWGQGTLVTVSSSGGSTITSYNVYYTKLSSSGTDIQMTQSPSSVSASVGDRVTITCRASRSIGNWLAWYQQKPGKAPKLLIYDAFNRASGVPSRFSGSGSGTDFTLTISSLQPEDFANYYCQQSYSTLPRYSFGGGTKVEIK
notes: as for B1
B14: 5662_Lib8_scFv (scFv)
scFv: EVQLVESGGGLVQPGRSLRLSCAASGFNFHNYDMHWVRQAPGKGLEWVSAIDISGQSTDYADSVEGRFTISRDNAKNSLYLQMNSLRAEDTAVYYCAREGWYGGVFDYWGQGTLVTVSSSGGSTITSYNVYYTKLSSSGTDIQMTQSPSSLSASVGDRVTITCRASQDIANWLAWYQQKPGKAPKLLIYGASESGVGVPSRFSGSGSGTDFTLTISSLQPEDVATYYCQQSLTMKTFGGGTKVEIK
notes: as for B1
B15: 15244_Lib8_scFv (scFv)
scFv: EVQLVESGGGLVQPGRSLRLSCAASGFTFADYDMHWVRQAPGKGLEWVSATSSHGVTTDYADSVEGRFTISRDNAKNSLYLQMNSLRAEDTAVYYCARGAWSGIAARQYIDYWGQGTLVTVSSSGGSTITSYNVYYTKLSSSGTDIQMTQSPSSLSASVGDRVTITCRASQTIGYWLAWYQQKPGKAPKLLIYDASVPESGVPSRFSGSGSGTDFTLTISSLQPEDVATYYCQQSYSYPLTFGGGTKVEIK
notes: as for B1

Target: T2, biotinylated human VWF cysteine knot (CK) domain construct (human, UniProt P04275 2724-2813, biotinylated in vitro (BirA) on the biotinylation tag; one N-glycan)
T2 construct: Expressed in HEK293 EBNA cells; disulfide-linked homodimer; also called human VWF CK; human VWF CK domain; not shown: in vitro biotinylation tag, HRV-3C site and 3 VWF residues before the CK domain
Assay: SPR, scFv captured via anti-SV5, CK domain injected, pH 5.5, apparent Kd;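 further: scFvs from crude yeast supernatants captured on chip-bound anti-SV5 antibody, Kd computed as koff divided by kon, dimeric CK construct likely makes affinity appear higher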

| Kd [nM] | Binder |
| --- | --- |
| 0.018 | B1 |
| 0.03 | B2 |
| 0.029 | B3 |
| 0.366 | B4 |
| 1.33 | B5 |
| 21.6 | B6 |
| 13.6 | B7 |
| 0.52 | B8 |
| 5.02 | B9 |
| 0.984 | B10 |
| 0.859 | B11 |
| 1.79 | B12 |
| 15.3 | B13 |
| 0.687 | B14 |
| 1.05 | B15 |

Target: T1, biotinylated cynomolgus monkey VWF …
Assay: SPR, scFv captured via anti-SV5, CK domain injected, pH 7.4, apparent Kd;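 further: scFvs from crude yeast supernatants printed on an amine-coupled anti-SV5 lawn, Kd computed as koff over kon, likely overestimating affinity because the CK construct is dimeric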
From the text: (§1) Briefly, a sensor chip was activated and coupled with an anti-SV5 mouse monoclonal antibody using amine coupling. The soluble scFvs in crude yeast supernatants were printed on the anti-SV5 lawn. […] From the measured association (kₒₙ) and dissociation (koff) rate constants, an apparent equilibrium dissociation constant (Kd=koff/kₒₙ) was estimated. Due to the dimeric state of the CK construct and consequent possibility for simultaneous binding of captured scFv to both monomers in the CK dimer, the SPR setup was expected to overestimate the binding affinity.

| Kd [nM] | Binder |
| --- | --- |
| 0.205 | B1 |
| 0.052 | B2 |
| 0.032 | B3 |
| 1.29 | B4 |
| 2.67 | B5 |
| 1.8 | B6 |
| 2.42 | B7 |
| 3.46 | B8 |
| 1.74 | B9 |
| 0.517 | B10 |
| 1.05 | B11 |
| 5.24 | B12 |
| 1.5 | B13 |
| 1.36 | B14 |
| 1.91 | B15 |

Target: T2, biotinylated human VWF cysteine knot …
Assay: as above
From the text: as §1

| Kd [nM] | Binder |
| --- | --- |
| 0.051 | B1 |
| 0.077 | B2 |
| 0.073 | B3 |
| 3.91 | B4 |
| 7.56 | B5 |
| 6.56 | B6 |
| 4.26 | B7 |
| 4.97 | B8 |
| 6.37 | B9 |
| 5.02 | B10 |
| 3.7 | B11 |
| 9.25 | B12 |
| 4.97 | B13 |
| 4.31 | B14 |
| 3.05 | B15 |
